Assay in all cases: cell-based or functional assay
The target in experiment [1] is Chimera P/7CD4bs/V3 envelope glycoprotein.
Experiment [2] concerns the target Chimera P/7CD4bs envelope glycoprotein.
The target of experiment [3] is MN-P envelope glycoprotein (neutralization resistant primary clone of the HIV-1 MN strain) (HIV-1 MN strain) (UniProt P05877).

monoclonal antibody 4.8d: the fifty percent neutralization concentration (pseudotyped virus) in experiment [1] is 20 ng/mL; in experiment [2], 60 ng/mL; in experiment [3], over 2.5 µg/mL.

With monoclonal antibody 17b, the fifty percent neutralization concentration (pseudotyped virus) was 210 ng/mL in experiment [1], 480 ng/mL in experiment [2] and over 2.5 µg/mL in experiment [3].

For monoclonal antibody 19b, the fifty percent neutralization concentration (pseudotyped virus) in experiment [1] was 16 ng/mL; in experiment [2], 60 ng/mL; in experiment [3], over 2.5 µg/mL.
